Paper PMC2951370, “Concerted Action of Two Formins in Gliding Motility and Host Cell Invasion by Toxoplasma gondii” (PLoS Pathogens, 2010)

Experiments:
[1] = biological target: DD-myc-F1-IR/AA (Toxoplasma gondii); assay: co-IP; two sequential anti-myc immunoprecipitations (48 hrs Shld-1); IPs and flow throughs blotted, bands quantified with ImageJ and normalised to the input
[2] = biological target: DD-myc-F2-R/A (Toxoplasma gondii); assay: as above
[3] = biological target: the molecule itself; assay: SEC; purified FH2 domains on Superose 6 10/300 GL, 0.4 ml/min, PBS-NaCl 0.15 M buffer, to determine their oligomeric state

Toxoplasma gondii Formin 1 (TgFRM1), endogenous (natural protein)
percent of the input formin left in the second flow through after two anti-myc IPs (not co-precipitated) [1]: 30%

Toxoplasma gondii Formin 2 (TgFRM2), endogenous (natural protein)
percent of the input formin left in the second flow through after two anti-myc IPs (not co-precipitated) [2]: 17%

B1: His-F2 (FH2 domain of TgFRM2) (domain or fragment, Toxoplasma gondii, UniProt D0V3Y1 3317-4043, looked up)
chain: TGSYPGASDKSQQTFSAGAPSSGTNARTESTPAGAGETGASGEAKAPAAPKKKAMPPPPPPGKTPGDASKAPGGPPGKGKAPPLPKGKKAPQLGKAPKAGGPPKKADAVDPMTLPLRRKIHWKTLGKEQIEGTVFKELEGDPAIPDMFDPEAISRLFSATLTVKSDEAAVKAAPKKAEEKKHTILDNKRAQNVAIVLARLPLSLDAIAQKMLHLDTEGLTVDILQKVEQVAPTPEELVKFREYEELKKTENTGDLRDVEKKMTALIPVTRLSSRVRVMQTALQWEKVVEEIEKQLALLCKAADEAHNSRKFRSLLQAVLQWGNYVNHGVKKAPKGQEVSSESEARKAETTSPTEGDRRENRQTLQQLPPILLVKELPTKGFKLASLEKLMEFRTTVDKSICSLHFIISNLIVSLPELDILDLASDMPSLEAAARLSDESIDAPVSYLRNEAAFLLSQIHAIKQVLAAKDATATDPSGAPRPSGSKPQTDEALHAELTRLQKLHGEMVLTLERLRESYLNCKAVIGEVGRFYGEDGPKKPSAGKHKLKGQAVSVDAGGSATAGGVIAEWEFGLLDQSPFELLFSILSTCRQGLRDVQANPRKYAILLVGRFASEEEKWKLLKFHIDNSLANRKRVTGCRGSDAEQVAGRPQDADKAGSSVVSSPRTTPRGSIASRGGKKLIVGRHGPEAGGTPQIPRGPPKSDNGSFTETQRLGRGLSEGSEDALSSP
notes: also called F2-WT; His-GST-F2; source: E. coli, purified (Ni-NTA under native conditions)
stoichiometry N [3]: 2

B2: His-F1L (FH2 domain of TgFRM1 with an N-terminal 48 amino acid proline-rich extension) (domain or fragment)
chain: KKPEAPKKEEAKPKPEAKKEAPKKGPPGGKGGKGPPGKGPPKGKGKGPKKKGEGGLKVGKKDEGKTKRFFWDPIFEDEIPGTIFMKKPNMVLKLQDVEETFAKVVAKKKTESKKPKIIQLLPDSKRAYNMSIALSKFNNYSYQQLREAIIDLDPKILTIEATETLLNFVPTGEENQVVKEYINSGGDLKLVDKPEQFVAAMLGVPLMKQRLEAHAFALNFREAYSDAYTPLENMADACDAIDDSQNLKIVLFAILELGNALNEGDPQRGGAAGFKPTTLAKLQEIRTTTKPVRTMLQYICDIIWEQQPTALNIYEDLKICDKAQRVDMQGIEGRISNLKAGLTKVKNTLEAAKKGNESTGVMGDRDPLRNIMDEFLIEAEPKIKQLDDFLVQVQNQFLQTCHYSGYPDKDVKKIKPDELFKQVAGFARQVDAIRKQKQEIADRELKRKEAEAKRAGKGLKSTAVKKVGMK
notes: source: E. coli, purified (Ni-NTA under native conditions)
stoichiometry N [3]: 2
